# Results reported in PMC3138243 (The Journal of Biological Chemistry, 2011).
# Read-outs that look alike come from different tables or passages of the source.
# T1: CRY1 (Mus musculus, UniProt P97784 1-606)
# T1 sequence: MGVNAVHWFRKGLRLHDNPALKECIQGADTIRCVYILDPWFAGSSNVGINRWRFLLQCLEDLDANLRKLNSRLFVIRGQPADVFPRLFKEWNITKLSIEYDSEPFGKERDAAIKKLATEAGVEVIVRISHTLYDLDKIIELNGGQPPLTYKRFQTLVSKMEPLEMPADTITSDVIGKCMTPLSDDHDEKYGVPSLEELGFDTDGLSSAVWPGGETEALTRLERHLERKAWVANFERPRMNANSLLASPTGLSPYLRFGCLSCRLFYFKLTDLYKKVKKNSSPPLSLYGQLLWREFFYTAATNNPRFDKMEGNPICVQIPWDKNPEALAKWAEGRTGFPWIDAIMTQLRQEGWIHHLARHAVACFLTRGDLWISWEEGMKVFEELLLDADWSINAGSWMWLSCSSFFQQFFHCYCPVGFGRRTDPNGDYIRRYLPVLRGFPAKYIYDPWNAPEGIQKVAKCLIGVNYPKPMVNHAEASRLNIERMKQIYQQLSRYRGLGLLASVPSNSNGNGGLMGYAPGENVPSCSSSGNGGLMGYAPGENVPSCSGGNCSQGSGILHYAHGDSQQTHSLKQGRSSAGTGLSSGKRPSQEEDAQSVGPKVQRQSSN
# How the values were obtained:
# CLOCK:BMAL1 heterodimer = CLOCK:BMAL1 heterodimer (mouse, UniProt O08785;Q9WTL8); assay: native gel or EMSA
# Sequence of CLOCK:BMAL1 heterodimer (Q9WTL8 whole entry, one chain of several): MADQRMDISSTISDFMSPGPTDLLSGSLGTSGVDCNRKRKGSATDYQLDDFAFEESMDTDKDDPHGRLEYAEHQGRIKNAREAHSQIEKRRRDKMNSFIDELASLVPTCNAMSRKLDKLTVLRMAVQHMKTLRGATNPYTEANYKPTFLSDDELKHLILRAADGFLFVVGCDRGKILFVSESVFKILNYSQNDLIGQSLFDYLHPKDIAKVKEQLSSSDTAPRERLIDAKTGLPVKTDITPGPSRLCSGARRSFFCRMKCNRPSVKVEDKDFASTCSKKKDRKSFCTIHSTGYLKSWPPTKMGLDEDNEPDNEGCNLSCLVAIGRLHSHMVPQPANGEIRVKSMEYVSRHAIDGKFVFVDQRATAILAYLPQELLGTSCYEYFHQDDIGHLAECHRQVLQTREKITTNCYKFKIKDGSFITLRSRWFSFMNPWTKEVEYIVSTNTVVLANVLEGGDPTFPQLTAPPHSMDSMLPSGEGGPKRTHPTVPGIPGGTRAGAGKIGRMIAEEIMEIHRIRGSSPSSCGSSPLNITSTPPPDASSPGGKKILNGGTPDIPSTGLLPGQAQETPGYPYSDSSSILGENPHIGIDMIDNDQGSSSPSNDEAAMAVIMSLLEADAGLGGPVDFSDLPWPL
# [1] = biological target: T2, CLOCK (co-expressed with BMAL1);BMAL1 (Mus musculus;Mus musculus, UniProt O08785;Q9WTL8 1-855;1-632, |); assay: EMSA
# T2 sequence (Q9WTL8 whole entry, one chain of several): as above
# [2] = biological target: T3, CLOCK (co-expressed with BMAL1);BMAL1;CRY1 (Mus musculus;Mus musculus;Mus musculus, UniProt O08785;Q9WTL8;P97784 1-855;1-632;1-606, ||); assay: EMSA supershift
# T3 sequence (Q9WTL8 whole entry, one chain of several): as above
# PER2 = PER2 (mouse, UniProt O54943 1-1257); assay: co-IP
# Sequence of PER2 (O54943 whole entry): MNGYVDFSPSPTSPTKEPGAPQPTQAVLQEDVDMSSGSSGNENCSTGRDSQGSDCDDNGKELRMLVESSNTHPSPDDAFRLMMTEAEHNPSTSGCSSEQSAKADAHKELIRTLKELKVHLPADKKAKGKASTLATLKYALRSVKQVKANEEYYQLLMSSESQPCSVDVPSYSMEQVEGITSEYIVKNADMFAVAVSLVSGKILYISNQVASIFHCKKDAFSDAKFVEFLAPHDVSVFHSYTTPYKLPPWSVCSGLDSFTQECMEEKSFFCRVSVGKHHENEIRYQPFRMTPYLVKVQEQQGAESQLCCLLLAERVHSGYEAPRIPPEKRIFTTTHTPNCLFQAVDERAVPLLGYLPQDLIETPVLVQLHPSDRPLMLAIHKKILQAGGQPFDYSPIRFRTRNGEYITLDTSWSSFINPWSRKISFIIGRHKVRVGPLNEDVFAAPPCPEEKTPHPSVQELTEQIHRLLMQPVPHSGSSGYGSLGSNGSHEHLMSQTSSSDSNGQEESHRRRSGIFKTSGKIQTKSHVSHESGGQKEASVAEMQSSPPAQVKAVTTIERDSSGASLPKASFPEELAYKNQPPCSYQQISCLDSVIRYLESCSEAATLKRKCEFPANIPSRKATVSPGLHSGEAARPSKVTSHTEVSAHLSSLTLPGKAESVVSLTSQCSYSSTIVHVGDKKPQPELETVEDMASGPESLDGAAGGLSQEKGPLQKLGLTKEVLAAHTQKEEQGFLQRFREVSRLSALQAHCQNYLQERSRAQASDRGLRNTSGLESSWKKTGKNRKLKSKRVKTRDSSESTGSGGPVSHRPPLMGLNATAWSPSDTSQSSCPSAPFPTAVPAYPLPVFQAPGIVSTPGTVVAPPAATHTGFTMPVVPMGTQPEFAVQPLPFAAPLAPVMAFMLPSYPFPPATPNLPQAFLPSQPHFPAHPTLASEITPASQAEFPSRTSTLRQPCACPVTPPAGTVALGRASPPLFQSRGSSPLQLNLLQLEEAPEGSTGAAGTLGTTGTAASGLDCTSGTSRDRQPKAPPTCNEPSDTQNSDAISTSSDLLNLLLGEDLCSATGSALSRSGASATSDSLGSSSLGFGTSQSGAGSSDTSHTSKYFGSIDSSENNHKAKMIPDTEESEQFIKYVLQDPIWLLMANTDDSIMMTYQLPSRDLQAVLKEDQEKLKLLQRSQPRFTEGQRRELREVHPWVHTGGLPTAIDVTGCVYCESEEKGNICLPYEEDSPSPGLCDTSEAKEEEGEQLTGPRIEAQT
# [3] = biological target: T2, CLOCK (co-expressed with BMAL1);BMAL1; assay: EMSA; remark: listed apart in the source
# CRY1 = biological target: T1, CRY1; assay: EMSA
# [4] = biological target: CLOCK (co-expressed with BMAL1);BMAL1;hCRY1 (Mus musculus;Mus musculus;Homo sapiens, UniProt O08785;Q9WTL8;Q16526 1-855;1-632;1-586, ||); assay: EMSA
# Sequence of CLOCK (co-expressed with BMAL1);BMAL1;hCRY1 (Q9WTL8 whole entry, one chain of several): as the sequence (Q9WTL8 whole entry, one chain of several) above
# [5] = biological target: T3, CLOCK (co-expressed with …); assay: EMSA supershift; remark: listed apart in the source
# BMAL1 = BMAL1 (Mus musculus, UniProt Q9WTL8 1-632); assay: EMSA
# Sequence of BMAL1 (Q9WTL8 whole entry): as the sequence (Q9WTL8 whole entry, one chain of several) above
# [6] = biological target: CLOCK (co-expressed with BMAL1);BMAL1;CRY2 (Mus musculus;Mus musculus;Mus musculus, UniProt O08785;Q9WTL8;Q9R194 1-855;1-632;1-592, ||); assay: EMSA supershift
# Sequence of CLOCK (co-expressed with BMAL1);BMAL1;CRY2 (Q9WTL8 whole entry, one chain of several): as above
binder,measurement,setting,value
CRY1 (natural protein) MGVNAVHWFRKGLRLHDNPALKECIQGADTIRCVYILDPWFAGSSNVGINRWRFLLQCLEDLDANLRKLNSRLFVIRGQPADVFPRLFKEWNITKLSIEYDSEPFGKERDAAIKKLATEAGVEVIVRISHTLYDLDKIIELNGGQPPLTYKRFQTLVSKMEPLEMPADTITSDVIGKCMTPLSDDHDEKYGVPSLEELGFDTDGLSSAVWPGGETEALTRLERHLERKAWVANFERPRMNANSLLASPTGLSPYLRFGCLSCRLFYFKLTDLYKKVKKNSSPPLSLYGQLLWREFFYTAATNNPRFDKMEGNPICVQIPWDKNPEALAKWAEGRTGFPWIDAIMTQLRQEGWIHHLARHAVACFLTRGDLWISWEEGMKVFEELLLDADWSINAGSWMWLSCSSFFQQFFHCYCPVGFGRRTDPNGDYIRRYLPVLRGFPAKYIYDPWNAPEGIQKVAKCLIGVNYPKPMVNHAEASRLNIERMKQIYQQLSRYRGLGLLASVPSNSNGNGGLMGYAPGENVPSCSSSGNGGLMGYAPGENVPSCSGGNCSQGSGILHYAHGDSQQTHSLKQGRSSAGTGLSSGKRPSQEEDAQSVGPKVQRQSSN,binding result,CLOCK:BMAL1 heterodimer,binds
Myc-CRY1 (natural protein) MGVNAVHWFRKGLRLHDNPALKECIQGADTIRCVYILDPWFAGSSNVGINRWRFLLQCLEDLDANLRKLNSRLFVIRGQPADVFPRLFKEWNITKLSIEYDSEPFGKERDAAIKKLATEAGVEVIVRISHTLYDLDKIIELNGGQPPLTYKRFQTLVSKMEPLEMPADTITSDVIGKCMTPLSDDHDEKYGVPSLEELGFDTDGLSSAVWPGGETEALTRLERHLERKAWVANFERPRMNANSLLASPTGLSPYLRFGCLSCRLFYFKLTDLYKKVKKNSSPPLSLYGQLLWREFFYTAATNNPRFDKMEGNPICVQIPWDKNPEALAKWAEGRTGFPWIDAIMTQLRQEGWIHHLARHAVACFLTRGDLWISWEEGMKVFEELLLDADWSINAGSWMWLSCSSFFQQFFHCYCPVGFGRRTDPNGDYIRRYLPVLRGFPAKYIYDPWNAPEGIQKVAKCLIGVNYPKPMVNHAEASRLNIERMKQIYQQLSRYRGLGLLASVPSNSNGNGGLMGYAPGENVPSCSSSGNGGLMGYAPGENVPSCSGGNCSQGSGILHYAHGDSQQTHSLKQGRSSAGTGLSSGKRPSQEEDAQSVGPKVQRQSSN,binding result,CLOCK:BMAL1 heterodimer,binds
P2GS 60-bp duplex (dsDNA) DNA 1: CATCACCCACTCACCCCTTAACGACACGTGGGCCCTCAATTGCCCTTCTCTCAGGATCTG DNA 2: CAGATCCTGAGAGAAGGGCAATTGAGGGCCCACGTGTCGTTAAGGGGTGAGTGGGTGATG,binding result,[1],binds
same,binding result,[2],binds
human CRY1 (natural protein) MGVNAVHWFRKGLRLHDNPALKECIQGADTIRCVYILDPWFAGSSNVGINRWRFLLQCLEDLDANLRKLNSRLFVIRGQPADVFPRLFKEWNITKLSIEYDSEPFGKERDAAIKKLATEAGVEVIVRISHTLYDLDKIIELNGGQPPLTYKRFQTLISKMEPLEIPVETITSEVIEKCTTPLSDDHDEKYGVPSLEELGFDTDGLSSAVWPGGETEALTRLERHLERKAWVANFERPRMNANSLLASPTGLSPYLRFGCLSCRLFYFKLTDLYKKVKKNSSPPLSLYGQLLWREFFYTAATNNPRFDKMEGNPICVQIPWDKNPEALAKWAEGRTGFPWIDAIMTQLRQEGWIHHLARHAVACFLTRGDLWISWEEGMKVFEELLLDADWSINAGSWMWLSCSSFFQQFFHCYCPVGFGRRTDPNGDYIRRYLPVLRGFPAKYIYDPWNAPEGIQKVAKCLIGVNYPKPMVNHAEASRLNIERMKQIYQQLSRYRGLGLLASVPSNPNGNGGFMGYSAENIPGCSSSGSCSQGSGILHYAHGDSQQTHLLKQGRSSMGTGLSGGKRPSQEEDTQSIGPKVQRQSTN,binding result,CLOCK:BMAL1 heterodimer,binds
CLOCK (natural protein) MVFTVSCSKMSSIVDRDDSSIFDGLVEEDDKDKAKRVSRNKSEKKRRDQFNVLIKELGSMLPGNARKMDKSTVLQKSIDFLRKHKETTAQSDASEIRQDWKPTFLSNEEFTQLMLEALDGFFLAIMTDGSIIYVSESVTSLLEHLPSDLVDQSIFNFIPEGEHSEVYKILSTHLLESDSLTPEYLKSKNQLEFCCHMLRGTIDPKEPSTYEYVRFIGNFKSLTSVSTSTHNGFEGTIQRTHRPSYEDRVCFVATVRLATPQFIKEMCTVEEPNEEFTSRHSLEWKFLFLDHRAPPIIGYLPFEVLGTSGYDYYHVDDLENLAKCHEHLMQYGKGKSCYYRFLTKGQQWIWLQTHYYITYHQWNSRPEFIVCTHTVVSYAEVRAERRRELGIEESLPETAADKSQDSGSDNRINTVSLKEALERFDHSPTPSASSRSSRKSSHTAVSDPSSTPTKIPTDTSTPPRQHLPAHEKMTQRRSSFSSQSINSQSVGPSLTQPAMSQAANLPIPQGMSQFQFSAQLGAMQHLKDQLEQRTRMIEANIHRQQEELRKIQEQLQMVHGQGLQMFLQQSNPGLNFGSVQLSSGNSNIQQLTPVNMQGQVVPANQVQSGHISTGQHMIQQQTLQSTSTQQSQQSVMSGHSQQTSLPSQTPSTLTAPLYNTMVISQPAAGSMVQIPSSMPQNSTQSATVTTFTQDRQIRFSQGQQLVTKLVTAPVACGAVMVPSTMLMGQVVTAYPTFATQQQQAQTLSVTQQQQQQQQQPPQQQQQQQQSSQEQQLPSVQQPAQAQLGQPPQQFLQTSRLLHGNPSTQLILSAAFPLQQSTFPPSHHQQHQPQQQQQLPRHRTDSLTDPSKVQPQ,binding result,PER2,binds
M34 (dsDNA) DNA 1: GGGACACGTGACCC DNA 2: GGGTCACGTGTCCC,binding result,[3],binds
same,binding result,CRY1,no binding
same,binding result,[4],binds
same,binding result,[5],binds
same,binding result,BMAL1,binds
same,binding result,[6],binds
CRY2 (natural protein) MAAAAVVAATVPAQSMGADGASSVHWFRKGLRLHDNPALLAAVRGARCVRCVYILDPWFAASSSVGINRWRFLLQSLEDLDTSLRKLNSRLFVVRGQPADVFPRLFKEWGVTRLTFEYDSEPFGKERDAAIMKMAKEAGVEVVTENSHTLYDLDRIIELNGQKPPLTYKRFQALISRMELPKKPAVAVSSQQMESCRAEIQENHDDTYGVPSLEELGFPTEGLGPAVWQGGETEALARLDKHLERKAWVANYERPRMNANSLLASPTGLSPYLRFGCLSCRLFYYRLWDLYKKVKRNSTPPLSLFGQLLWREFFYTAATNNPRFDRMEGNPICIQIPWDRNPEALAKWAEGKTGFPWIDAIMTQLRQEGWIHHLARHAVACFLTRGDLWVSWESGVRVFDELLLDADFSVNAGSWMWLSCSAFFQQFFHCYCPVGFGRRTDPSGDYIRRYLPKLKGFPSRYIYEPWNAPESVQKAAKCIIGVDYPRPIVNHAETSRLNIERMKQIYQQLSRYRGLCLLASVPSCVEDLSHPVAEPGSSQAGSISNTGPRALSSGPASPKRKLEAAEEPPGEELTKRARVTEMPTQEPASKDS,binding result,CLOCK:BMAL1 heterodimer,binds
